PMC8564633, “SMAC/Diablo controls proliferation of cancer cells by regulating phosphatidylethanolamine synthesis” (Molecular Oncology, 2021)

Biological target: T1, purified PSD (Homo sapiens, UniProt Q9UG56)
T1 construct: Purified recombinant protein (full length) of human phosphatidylserine decarboxylase (PSD); His tag (N); purchased Acris-OriGene; host or cells: E. coli
T1 sequence (Q9UG56 53-409): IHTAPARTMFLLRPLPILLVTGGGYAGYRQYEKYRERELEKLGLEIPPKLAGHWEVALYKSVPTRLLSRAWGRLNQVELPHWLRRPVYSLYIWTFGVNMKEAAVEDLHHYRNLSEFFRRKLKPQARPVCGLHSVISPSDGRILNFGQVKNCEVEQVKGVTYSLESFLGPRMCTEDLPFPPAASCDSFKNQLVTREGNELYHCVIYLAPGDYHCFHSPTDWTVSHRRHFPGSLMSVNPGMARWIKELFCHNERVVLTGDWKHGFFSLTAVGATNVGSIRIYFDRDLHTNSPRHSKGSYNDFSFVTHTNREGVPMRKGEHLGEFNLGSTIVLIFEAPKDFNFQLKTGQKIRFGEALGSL
Test: PSD activity, DSB‐3 method
Assay type: biochemical
Conditions: PS 50 μM, 45 min, 30 °C, n = 4, read-out: IC50, SMAC‐inhibiting PSD activity
Procedure: PE content in the lipid samples was measured as described previously. Briefly, solvent was evaporated from the lipid samples under nitrogen gas, and samples were resuspended in 0.8 mM Triton X‐100. Sample aliquots were added to 96‐well plates containing (50 µL) reaction mixture (80 mM NaCl, 2 mM K2HPO4, pH 7.4) and of borate buffer (12.5 µL) (100 mM boric acid, 75 mM NaCl, 25 mM sodium tetraborate, pH 9). After mixing, 12.5 µL of 100 µM DSB‐3, in 10 mM K2HPO4 (pH 7.4), was then added and incubated for 2 h in the dark with shaking (100 r.p.m.). Fluorescence was measured using excitation λex = 403 nm and emission λem = 508 nm. A calibration curve was obtained using PE (Biovision) as a standard.
To determine PSD activity, purified enzyme (0.2–0.4 μM) or crude cell lysate (0.25–0.5 μg of protein) was incubated with PS (50 μM) for 45 min at 30 °C in the dark with shaking under the conditions described above for PE determination. PSD activity was measured by determining the PE produced as described above, except that the signal obtained in the absence of substrate PS (representing endogenous PE) was subtracted from the signal obtained in the presence of PS.
Human recombinant SMAC (10339‐H08E) was produced by Sino Biologicals (Wayne, PA, USA). […]

B1: SMAC: Human recombinant SMAC (10339‐H08E) produced by Sino Biologicals (protein)
chain: LCVPVVANFKKRCFSELIRPWHKTVTIGFGVTLCAVPIAQKSEPHSLSSEALMRRAVSLVTDSTSTFLSQTTYALIEAITEYTKAVYTLTSLYRQYTSLLGKMNSEEEDEVWQVIIGARAEMTSKHQEYLKLETTWMTAVGLSEMAAEAAYQTGADQASITARNHIQLVKLQVEEVHQLSRKAETKLAEAQIEELRQKTQEEGEERAESEQEAYLRED
modifications: fluorescently labelled with the NanoTemper Protein labelling kit BLUE (in the MST with PSD only)
notes: Human recombinant SMAC (10339‐H08E) produced by Sino Biologicals
IC50: 0.4 µM
